Measurements taken from patent US11643467B2, “Monoclonal antibody anti-FGFR4” (EXIRIS S.R.L., priority 2017, dated 2023).

Tests used:
[1] = test system: FGFR4-dependent phosphorylation of FRS2; assay: Western blot of FGF19-induced FRS2/FGFR4 phosphorylation in HCC cells; type: cell-based, human; details: Huh7; antibodies 100 or 200 ug/mL, BLU9931 0.1 uM or 1 uM; FIG. 21
Description: FIG. 21. Inhibition of FGF19-dependent FGFR4 and FRS2 phosphorylation in Huh7 cells treated with the anti-FGFR4 chimeric antibodies analyzed by Western Blot. Cells were treated with 100 or 200 ug/mL of each antibody, with 0.1 uM or 1 uM BLU9931, or with PBS prior of the addition of FGF19/heparin under the experimental conditions described in the Example 8.
FIG. 31. […] (A) Graph of the absorbance values at 450 nm obtained from a FGFR4-Fc-dependent solid phase binding assay, as a function of the concentration of ab41948. Serial 1:3 dilutions (10 experimental points from 0.00005 ug/mL to 1 ug/mL) were tested in triplicate on the extracellular regions of FGFR4 fused with human Fc. The continuous line is the experimental one while the dashed line is that obtained by fitting experimental data to the “one site binding” equation. […] Inhibition curves were derived by 4P logistic fitting of the experimental data with the KaleidaGraph software, based on the residual absorbance at 450 nm (% of PBS control) at increasing antibody concentrations (1:3 serial dilutions from 0.001 to 10 ug/mL). […]
BLU9931 was included as positive control Ih before cell lysis at concentrations of […]. Total protein lysates in SDS were prepared and analyzed by Western Blot using an anti-phospho-FRS2 antibody (Tyrl96, Cell Signalling), an anti-FRS2 antibody (LSBio) and an anti-GAPDH antibody (Sigma-Aldrich). […]

[2] = test system: FGFR4 signalling pathway (CYP7A1, CTGF mRNA)

| Compound | inhibition of FGF19-induced FGFR4 and FRS2 phosphorylation [1] | increase of CTGF expression [2] | reduction of CYP7A1 expression [2] |
| --- | --- | --- | --- |
| C=CC(=O)Nc1cccc(C)c1Nc1ncc2cc(-c3c(Cl)c(OC)cc(OC)c3Cl)ccc2n1 [BLU9931, reference compound] | could inhibit FGF19-induced FGFR4 and FRS2 phosphorylation | – | – |
| FGF19: recombinant FGF19 (Peprotech), FGFR4 ligand | – | about 2.5 fold | about 5 fold |
